Read-outs that look alike come from different tables or passages of the source. Bridges are numbered along the chain shown (N, C = ends). Where no end group is shown, it is not given here. [ ]: non-standard residue; d: D form. PhLac = O=C(O)[C@@H](O)Cc1ccccc1
B1: [E9, E16K20(lactam), D28]G(4-29) (peptide)
peptide: GTFTSEYSKYLDERRAKDFVQWLMDT-NH2
modifications: lactam 13-17; N-terminus assumed
SMILES: CSCC[C@H](NC(=O)[C@H](CC(C)C)NC(=O)[C@H](Cc1c[nH]c2ccccc12)NC(=O)[C@H](CCC(N)=O)NC(=O)[C@@H](NC(=O)[C@H](Cc1ccccc1)NC(=O)[C@H](CC(=O)O)NC(=O)[C@@H]1CCCCNC(=O)CC[C@H](NC(=O)[C@H](CC(=O)O)NC(=O)[C@H](CC(C)C)NC(=O)[C@H](Cc2ccc(O)cc2)NC(=O)[C@H](CCCCN)NC(=O)[C@H](CO)NC(=O)[C@H](Cc2ccc(O)cc2)NC(=O)[C@H](CCC(=O)O)NC(=O)[C@H](CO)NC(=O)[C@@H](NC(=O)[C@H](Cc2ccccc2)NC(=O)[C@@H](NC(=O)CN)[C@@H](C)O)[C@@H](C)O)C(=O)N[C@@H](CCCNC(=N)N)C(=O)N[C@@H](CCCNC(=N)N)C(=O)N[C@@H](C)C(=O)N1)C(C)C)C(=O)N[C@@H](CC(=O)O)C(=O)N[C@H](C(N)=O)[C@@H](C)O
B2: [PLA6, D9, E16, E24K28(lactam), D28]G(6-29) (peptide)
peptide: [PhLac]TSDYSKYLDERRAQDFVEWLMKT-NH2
modifications: lactam 19-23; N-terminus assumed
SMILES: CSCC[C@@H]1NC(=O)[C@H](CC(C)C)NC(=O)[C@H](Cc2c[nH]c3ccccc23)NC(=O)[C@@H](NC(=O)[C@@H](NC(=O)[C@H](Cc2ccccc2)NC(=O)[C@H](CC(=O)O)NC(=O)[C@H](CCC(N)=O)NC(=O)[C@H](C)NC(=O)[C@H](CCCNC(=N)N)NC(=O)[C@H](CCCNC(=N)N)NC(=O)[C@H](CCC(=O)O)NC(=O)[C@H](CC(=O)O)NC(=O)[C@H](CC(C)C)NC(=O)[C@H](Cc2ccc(O)cc2)NC(=O)[C@H](CCCCN)NC(=O)[C@H](CO)NC(=O)[C@H](Cc2ccc(O)cc2)NC(=O)[C@H](CC(=O)O)NC(=O)[C@H](CO)NC(=O)[C@@H](NC(=O)[C@@H](O)Cc2ccccc2)[C@@H](C)O)C(C)C)CCC(=O)NCCCC[C@@H](C(=O)N[C@H](C(N)=O)[C@@H](C)O)NC1=O

How the values were obtained:
Test in all cases: cell-based or functional assay
[1] = biological target: T1, GLP-1 receptor (Homo sapiens, UniProt P43220)
[2] = biological target: glucagon receptor (UniProt P47871)
[3] = biological target: T1, GLP-1 receptor; remark: listed apart in the source
[4] = biological target: glucagon receptor (UniProt P47871); remark: listed apart in the source
[5] = biological target: T2, GLP-1 receptor (UniProt P43220 24-463, limits assumed)
[6] = biological target: glucagon receptor (UniProt P47871 26-477)
[7] = biological target: T2, GLP-1 receptor; remark: listed apart in the source

glucagon receptor (UniProt P47871 26-477), sequence (P47871 26-477 limits assumed): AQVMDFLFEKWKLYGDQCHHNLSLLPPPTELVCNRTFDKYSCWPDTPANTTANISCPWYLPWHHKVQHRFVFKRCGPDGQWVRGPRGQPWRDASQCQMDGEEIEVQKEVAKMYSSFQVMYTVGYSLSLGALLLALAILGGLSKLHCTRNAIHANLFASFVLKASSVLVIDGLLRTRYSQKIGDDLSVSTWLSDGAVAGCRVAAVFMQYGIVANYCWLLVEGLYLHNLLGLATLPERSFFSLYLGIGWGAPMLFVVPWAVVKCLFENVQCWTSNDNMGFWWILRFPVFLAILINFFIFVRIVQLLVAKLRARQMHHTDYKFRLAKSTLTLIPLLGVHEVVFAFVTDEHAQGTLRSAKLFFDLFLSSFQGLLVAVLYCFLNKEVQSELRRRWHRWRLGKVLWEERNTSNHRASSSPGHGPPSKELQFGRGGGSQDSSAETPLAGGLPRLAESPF
T1 sequence (P43220 24-463 limits assumed): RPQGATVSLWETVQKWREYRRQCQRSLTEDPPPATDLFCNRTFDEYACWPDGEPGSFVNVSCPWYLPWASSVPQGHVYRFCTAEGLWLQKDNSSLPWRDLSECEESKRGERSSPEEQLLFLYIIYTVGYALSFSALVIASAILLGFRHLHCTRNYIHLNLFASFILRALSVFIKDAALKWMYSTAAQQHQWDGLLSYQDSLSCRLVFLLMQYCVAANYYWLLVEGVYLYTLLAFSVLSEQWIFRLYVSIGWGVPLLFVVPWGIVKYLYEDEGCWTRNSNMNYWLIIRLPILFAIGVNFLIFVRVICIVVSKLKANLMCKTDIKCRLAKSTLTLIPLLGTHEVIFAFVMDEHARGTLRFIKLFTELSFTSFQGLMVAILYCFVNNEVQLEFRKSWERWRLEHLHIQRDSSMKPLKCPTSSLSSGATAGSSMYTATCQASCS
glucagon receptor (UniProt P47871), sequence (P47871 26-477 limits assumed): as the sequence (P47871 26-477 limits assumed) above

Molecule | GLP-1 EC50 [5] [nM] | Glucagon IC50 [6] [nM] | GLP-1 EC50 [7] [nM] | other results
Glucagon (6-CEX) analog D9, K12E16(Lactam) (peptide) | – | – | – | GLP-1 EC50 [1]: 119 nM; Glu IC50 [2]: 828 nM; GLP-1 EC50 [3]: 18 nM; Glucagon IC50 [4]: 828 nM
B1 | 151 | 10 to 30 | – | –
[PhLac]TSDYSKYLDERRAKDFVQWLMDT-NH2 (lactam 11-15) [[PLA6, D9, E16K20(lactam), D28]G(6-29)] | – | 10 to 30 | 4 | –
FTSDYSKYLDSRRAQDFVQWLMDT (residue 1 (position 6) is phenyl lactic acid (PLA), written here as F) [PLA 6, D9, D28] | – | – | ~700 | –
B2 | 289 | 22 | – | –
